# Experimental data: IntAct's records for PubMed 10512882
# B1: Focal adhesion kinase 1 (Gallus gallus (Chicken)), Q00944 (parent)
# chain: MAAAYLDPNLNHTPSSSAKTHLGTGMERSPGAMERVLKVFHYFENSSEPTTWASIIRHGDATDVRGIIQKIVDCHKVKNVACYGLRLSHLQSEEVHWLHLDMGVSNVREKFELAHPPEEWKYELRIRYLPKGFLNQFTEDKPTLNFFYQQVKNDYMLEIADQVDQEIALKLGCLEIRRSYGEMRGNALEKKSNYEVLEKDVGLRRFFPKSLLDSVKAKTLRKLIQQTFRQFANLNREESILKFFEILSPVYRFDKECFKCALGSSWIISVELAIGPEEGISYLTDKGANPTHLADFNQVQTIQYSNSEDKDRKGMLQLKIAGAPEPLTVTAPSLTIAENMADLIDGYCRLVNGATQSFIIRPQKEGERALPSIPKLANNEKQGVRSHTVSVSETDDYAEIIDEEDTYTMPSTRDYEIQRERIELGRCIGEGQFGDVHQGIYMSPENPAMAVAIKTCKNCTSDSVREKFLQEALTMRQFDHPHIVKLIGVITENPVWIIMELCTLGELRSFLQVRKFSLDLASLILYAYQLSTALAYLESKRFVHRDIAARNVLVSATDCVKLGDFGLSRYMEDSTYYKASKGKLPIKWMAPESINFRRFTSASDVWMFGVCMWEILMHGVKPFQGVKNNDVIGRIENGERLPMPPNCPPTLYSLMTKCWAYDPSRRPRFTELKAQLSTILEEEKLQQEERMRMESRRQVTVSWDSGGSDEAPPKPSRPGYPSPRSSEGFYPSPQHMVQPNHYQVSGYSGSHGIPAMAGSIYPGQASLLDQTDSWNHRPQEVSAWQPNMEDSGTLDVRGMGQVLPTHLMEERLIRQQQEMEEDQRWLEKEERFLVMKPDVRLSRGSIEREDGGLQGPAGNQHIYQPVGKPDHAAPPKKPPRPGAPHLGSLASLNSPVDSYNEGVKIKPQEISPPPTANLDRSNDKVYENVTGLVKAVIEMSSKIQPAPPEEYVPMVKEVGLALRTLLATVDESLPVLPASTHREIEMAQKLLNSDLAELINKMKLAQQYVMTSLQQEYKKQMLTAAHALAVDAKNLLDVIDQARLKMISQSRPH
# Variants of: B1
# Conditions: with src_chick SRC
row,effect of a mutation on the interaction,Variant
1,disrupting interaction,Y397F
2,disrupting interaction,Y397F;K454R
3,decreasing interaction,Y576F;Y577F
4,decreasing interaction,K454R
